Data published in publication PMC11430099.

System: T1, CadX (single-chain homodimer, two identical CadX copies joined by GGGGSGGGGSGGGGS linker) (Streptococcus suis GZ0565), ORF:24397d24
T1 sequence: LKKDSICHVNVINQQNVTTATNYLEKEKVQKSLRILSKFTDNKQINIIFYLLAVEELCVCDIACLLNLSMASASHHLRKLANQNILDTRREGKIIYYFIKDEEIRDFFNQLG
Experiment: EMSA

Sequence: TTTGGATGGCAGGGCTTTTTTATATTTGGTACACTAACTTCTTATCTATATTTTGGTGGAGCTGAAGTTGACATCTACAATGTTTAATGTTAGAATACATTCAAAAATATATTTGAATGAGGTCTTTT (double strand) [cadDX promoter fragment]
- binding: binds
